Assay results: the supplement of paper PMC11316812
± gives the standard deviation of the averaged measurements.

Legend:
[1] = system: MCF7; experiment: percentage of EdU-negative (G0-arrested) nuclei per well, 72 h; higher = more G0 arrest; conditions: reference: sequence is the full UniProt precursor, the tested protein was the secreted form or ectodomain
[2] = system: hTERT-HMEC; experiment: as above; conditions: reference: sequence is the full UniProt precursor, the tested protein was the secreted form or ectodomain
[3] = protein concentration 0.0237143 µM
[4] = protein concentration 0.237143 µM
[5] = protein concentration 0.02103 µM
[6] = protein concentration 0.2103 µM
[7] = protein concentration 0.02075 µM
[8] = protein concentration 0.2075 µM
[9] = protein concentration 0.0225 µM
[10] = protein concentration 0.0171429 µM
[11] = protein concentration 0.171429 µM
[12] = protein concentration 0.0125 µM
[13] = protein concentration 0.0175 µM
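Also: secreted proteins added to cultured cells, EdU pulse at the end, nuclei found by Hoechst imaging, EdU status from nuclear versus surrounding ring intensity ratio, PBS as neutral control.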

MVWRVPPFLLPILFLASHVGAAVDLTLLANLRLTDPQRFFLTCVSGEAGAGRGSDAWGPPLLLEKDDRIVRTPPGPPLRLARNGSHQVTLRGFSKPSDLVGVFSCVGGAGARRTRVIYVHNSPGAHLLPDKVTHTVNKGDTAVLSARVHKEKQTDVIWKSNGSYFYTLDWHEAQDGRFLLQLPNVQPPSSGIYSATYLEASPLGSAFFRLIVRGCGAGRWGPGCTKECPGCLHGGVCHDHDGECVCPPGFTGTRCEQACREGRFGQSCQEQCPGISGCRGLTFCLPDPYGCSCGSGWRGSQCQEACAPGHFGADCRLQCQCQNGGTCDRFSGCVCPSGWHGVHCEKSDRIPQILNMASELEFNLETMPRINCAAAGNPFPVRGSIELRKPDGTVLLSTKAIVEPEKTTAEFEVPRLVLADSGFWECRVSTSGGQDSRRFKVNVKVPPVPLAAPRLLTKQSRQLVVSPLVSFSGDGPISTVRLHYRPQDSTMDWSTIVVDPSENVTLMNLRPKTGYSVRVQLSRPGEGGEGAWGPPTLMTTDCPEPLLQPWLEGWHVEGTDRLRVSWSLPLVPGPLVGDGFLLRLWDGTRGQERRENVSSPQARTALLTGLTPGTHYQLDVQLYHCTLLGPASPPAHVLLPPSGPPAPRHLHAQALSDSEIQLTWKHPEALPGPISKYVVEVQVAGGAGDPLWIDVDRPEETSTIIRGLNASTRYLFRMRASIQGLGDWSNTVEESTLGNGLQAEGPVQESRAAEEGLDQQLILAVVGSVSATCLTILAALLTLVCIRRSCLHRRRTFTYQSGSGEETILQFSSGTLTLTRRPKLQPEPLSYPVLEWEDITFEDLIGEGNFGQVIRAMIKKDGLKMNAAIKMLKEYASENDHRDFAGELEVLCKLGHHPNIINLLGACKNRGYLYIAIEYAPYGNLLDFLRKSRVLETDPAFAREHGTASTLSSRQLLRFASDAANGMQYLSEKQFIHRDLAARNVLVGENLASKIADFGLSRGEEVYVKKTMGRLPVRWMAIESLNYSVYTTKSDVWSFGVLLWEIVSLGGTPYCGMTCAELYEKLPQGYRMEQPRNCDDEVYELMRQCWRDRPYERPPFAQIALQLGRMLEARKAYVNMSLFENFTYAGIDATAEEA
percentage of EdU-negative [1, 3]: 23.1 ± 1.1%
percentage of EdU-negative [1, 4]: 26.39 ± 0.034%
percentage of EdU-negative [2, 3]: 5.57 ± 1.2%
percentage of EdU-negative [2, 4]: 5.36 ± 0.036%

MRVAGAAKLVVAVAVFLLTFYVISQVFEIKMDASLGNLFARSALDTAARSTKPPRYKCGISKACPEKHFAFKMASGAANVVGPKICLEDNVLMSGVKNNVGRGINVALANGKTGEVLDTKYFDMWGGDVAPFIEFLKAIQDGTIVLMGTYDDGATKLNDEARRLIADLGSTSITNLGFRDNWVFCGGKGIKTKSPFEQHIKNNKDTNKYEGWPEVVEMEGCIPQKQD
percentage of EdU-negative [1, 5]: 25.3 ± 0.58%
percentage of EdU-negative [1, 6]: 24.9 ± 1.8%
percentage of EdU-negative [2, 5]: 4.78 ± 1.5%
percentage of EdU-negative [2, 6]: 5.17 ± 1.7%

MEKKWKYCAVYYIIQIHFVKGVWEKTVNTEENVYATLGSDVNLTCQTQTVGFFVQMQWSKVTNKIDLIAVYHPQYGFYCAYGRPCESLVTFTETPENGSKWTLHLRNMSCSVSGRYECMLVLYPEGIQTKIYNLLIQTHVTADEWNSNHTIEIEINQTLEIPCFQNSSSKISSEFTYAWSVENSSTDSWVLLSKGIKEDNGTQETLISQNHLISNSTLLKDRVKLGTDYRLHLSPVQIFDDGRKFSCHIRVGPNKILRSSTTVKVFAKPEIPVIVENNSTDVLVERRFTCLLKNVFPKANITWFIDGSFLHDEKEGIYITNEERKGKDGFLELKSVLTRVHSNKPAQSDNLTIWCMALSPVPGNKVWNISSEKITFLLGSEISSTDPPLSVTESTLDTQPSPASSVSPARYPATSSVTLVDVSALRPNTTPQPSNSSMTTRGFNYPWTSSGTDTKKSVSRIPSETYSSSPSGAGSTLHDNVFTSTARAFSEVPTTANGSTKTNHVHITGIVVNKPKDGMSWPVIVAALLFCCMILFGLGVRKWCQYQKEIMERPPPFKPPPPPIKYTCIQEPNESDLPYHEMETL
percentage of EdU-negative [1, 7]: 25.5 ± 0.86%
percentage of EdU-negative [1, 8]: 29.5 ± 0.78%
percentage of EdU-negative [2, 7]: 4.86 ± 1%
percentage of EdU-negative [2, 8]: 12.1 ± 1.3%

MQAPGRGPLGLRLMMPGRRGALREPGGCGSCLGVALALLLLLLPACCPVRAQNDTEPIVLEGKCLVVCDSSPSADGAVTSSLGISVRSGSAKVAFSATRSTNHEPSEMSNRTMTIYFDQVLVNIGNHFDLASSIFVAPRKGIYSFSFHVVKVYNRQTIQVSLMQNGYPVISAFAGDQDVTREAASNGVLLLMEREDKVHLKLERGNLMGGWKYSTFSGFLVFPL [Q8IUK8]
percentage of EdU-negative [1, 9]: 26.91 ± 0.25%
percentage of EdU-negative ([1]; protein concentration 0.225 µM): 26.76 ± 0.11%
percentage of EdU-negative [2, 9]: 4.67 ± 0.45%
percentage of EdU-negative ([2]; protein concentration 0.225 µM): 5.29 ± 0.93%

MLLFLLSALVLLTQPLGYLEAEMKTYSHRTMPSACTLVMCSSVESGLPGRDGRDGREGPRGEKGDPGLPGAAGQAGMPGQAGPVGPKGDNGSVGEPGPKGDTGPSGPPGPPGVPGPAGREGPLGKQGNIGPQGKPGPKGEAGPKGEVGAPGMQGSAGARGLAGPKGERGVPGERGVPGNTGAAGSAGAMGPQGSPGARGPPGLKGDKGIPGDKGAKGESGLPDVASLRQQVEALQGQVQHLQAAFSQYKKVELFPNGQSVGEKIFKTAGFVKPFTEAQLLCTQAGGQLASPRSAAENAALQQLVVAKNEAAFLSMTDSKTEGKFTYPTGESLVYSNWAPGEPNDDGGSEDCVEIFTNGKWNDRACGEKRLVVCEF
percentage of EdU-negative [1, 10]: 23.4 ± 1.8%
percentage of EdU-negative [1, 11]: 25.14 ± 0.067%
percentage of EdU-negative [2, 10]: 4.51 ± 0.51%
percentage of EdU-negative [2, 11]: 5.78 ± 0.29%

MVLLLLVAIPLLVHSSRGPAHYEMLGRCRMVCDPHGPRGPGPDGAPASVPPFPPGAKGEVGRRGKAGLRGPPGPPGPRGPPGEPGRPGPPGPPGPGPGGVAPAAGYVPRIAFYAGLRRPHEGYEVLRFDDVVTNVGNAYEAASGKFTCPMPGVYFFAYHVLMRGGDGTSMWADLMKNGQVRASAIAQDADQNYDYASNSVILHLDVGDEVFIKLDGGKVHGGNTNKYSTFSGFIIYPD [Q86Z23]
percentage of EdU-negative [1, 12]: 23.6 ± 0.38%
percentage of EdU-negative ([1]; protein concentration 0.125 µM): 27.2 ± 2.1%
percentage of EdU-negative [2, 12]: 4.79 ± 0.17%
percentage of EdU-negative ([2]; protein concentration 0.125 µM): 6.46 ± 0.13%

P16144
percentage of EdU-negative [1, 13]: 24.1 ± 3.2%
percentage of EdU-negative ([1]; protein concentration 0.175 µM): 28.6 ± 0.6%
percentage of EdU-negative [2, 13]: 5.31 ± 0.28%
percentage of EdU-negative ([2]; protein concentration 0.175 µM): 5.29 ± 0.16%
